According to patent publication US20210393713A1 (published 2021):

Target: AAV-PHP.B capsid (AAV9 variant with the […] insert)
Assay: SPR

B1: LY6A as used in SPR (immobilized on the sensor chip, or monomeric in solution) (receptor)
chain: LECYQCYGVPFETSCPSITCPYPDGVCVTQEAAVIVDSQTRKVKNNLCLPICPPNIESMEILGTKVNVKTSCCQEDLCNVAVPNG
  Kd: 0.119 nM
